Results published in US20230303994.

Molecular target: pre-pro-human insulin

Row | Protein | Activity PPI cleavage | Selectivity [%]
1 | trypsin variant SEQ ID NO: 32 (protein) IVGGYTCAANSIPYQVSLNSGSHRCGGSLINSQWVVSAAHCYKSRIQVRLGEHNIDVLEGNEQFINAAKIITHPNFNGNTLDNDIMLIKLSSPATLNSRVATVSLPRSCAAAGTECLISGWGNTKSSGSSYPSLLQCLKAPVLSDSSCKSSYPGQITGNMICVGFLEGGKDACQGDSGGPVVCNGQLQGIVSSGYGCAQKNKPGVYTKVCNYVNWIQQTIAAN | yes | >90
2 | trypsin variant SEQ ID NO: 43 (protein) IVGGYTCAANSIPYQVSLNSGSHRCGGSLINSQWVVSAAHCYKSRIQVRLGEHNIDVLEGNEQFINAAKIITHPNFNGNTLDNDIMLIKLSSPATLNSRVATVSLPRSCAAAGTECLISGWGNTKSSGSSYPSLLQCLKAPVLSDSSCKSSYPGQITGNMICVGFLEGGKDTCQGDSGGPVVCNGQLQGIVSSGYGCAQKNKPGVYTKVCNYVNWIQQTIAAN | yes | >80
3 | trypsin variant SEQ ID NO: 40 (protein) IVGGYTCAANSIPYQVSLNSGSHRCGGSLINSQWVVSAAHCYKSRIQVRLGEHNIDVLEGNEQFINAAKIITHPNFNGNTLDNDIMLIKLSSPATLNSRVATVSLPRSCAAAGTECLISGWGNTKSSGSSEPSLLQCLKAPVLSDSSCKSSYPGQITGNMICVGFLEGGKDACQGDSGGPVVCNGQLQGIVSSGYGCAQKNKPGVYTKVCNYVNWIQQTIAAN | yes | >80
4 | trypsin variant SEQ ID NO: 46 (protein) IVGGYTCAANSIPYQVSLNSGSHACGGSLINSQWVVSAAHCYKSRIQVRLGEHNIDVLEGNEQFINAAKIITHPNFNGNTLDNDIMLIKLSSPATLNSRVATVSLPRSCAAAGTECLISGWGNTKSSGSSYPSLLQCLKAPVLSDSSCKSSYPGQITGNMICVGFLEGGKDACQGDSGGPVVCNGQLQGIVSSGYGCAQKNKPGVYTKVCNYVNWIQQTIAAN | yes | >70
5 | trypsin variant SEQ ID NO: 50 (protein) IVGGYTCAANSIPYQVSLNSGSHNCGGSLINSQWVVSAAHCYKSRIQVRLGEHNIDVLEGNEQFINAAKIITHPNFNGNTLDNDIMLIKLSSPATLNSRVATVSLPRSCAAAGTECLISGWGNTKSSGSSYPSLLQCLKAPVLSDSSCKSSYPGQITGNMICVGFLEGGKDACQGDSGGPVVCNGQLQGIVSSGYGCAQKNKPGVYTKVCNYVNWIQQTIAAN | yes | >65
6 | trypsin variant SEQ ID NO: 6 (protein) IVGGYTCAANSIPYQVSLNSGSHRCGGSLINSQWVVSAAHCYKSRIQVRLGEHNIDVLEGNEQFINAAKIITHPNFNGNTLDNDIMLIKLSSPATLNSFVATVSLPRSCAAAGTECLISGWGNTKSSGSSYPSLLQCLKAPVLSDSSCKSSYPGQITGNMICVGFLEGGKDACQGDSGGPVVCNGQLQGIVSSGYGCAQKNKPGVYTKVCNYVNWIQQTIAAN | yes | >90
7 | trypsin variant SEQ ID NO: 44 (protein) IVGGYTCAANSIPYQVSLNSGSHRCGGSLINSQWVVSAAHCYKSRIQVRLGEHNIDVLEGNEQFINAAKIITHPNFNGNTLDNDIMLIKLSSPATLNSRVATVSLPRSCAAAGTECLISGWGNTKSSGSSYPSLLQCLKAPVLSDSSCKSSYPGQITGNMICVGFLEGGKDSCQGDSGGPVVCNGQLQGIVSSGYGCAQKNKPGVYTKVCNYVNWIQQTIAAN | yes | >80
8 | trypsin variant SEQ ID NO: 51 (protein) IVGGYTCAANSIPYQVSLNSGSHKCGGSLINSQWVVSAAHCYKSRIQVRLGEHNIDVLEGNEQFINAAKIITHPNFNGNTLDNDIMLIKLSSPATLNSRVATVSLPRSCAAAGTECLISGWGNTKSSGSSYPSLLQCLKAPVLSDSSCKSSYPGQITGNMICVGFLEGGKDACQGDSGGPVVCNGQLQGIVSSGYGCAQKNKPGVYTKVCNYVNWIQQTIAAN | yes | >70
9 | trypsin variant SEQ ID NO: 33 (protein) IVGGYTCAANSIPYQVSLNSGSHRCGGSLINSQWVVSAAHCYKSRIQVRLGEHNIDVLEGNEQFINAAKIITHPNFNGNTLDNDIMLIKLSSPATLNSRVATVSLPTSCAAAGTECLISGWGNTKSSGSSYPSLLQCLKAPVLSDSSCKSSYPGQITGNMICVGFLEGGKDACQGDSGGPVVCNGQLQGIVSSGYGCAQKNKPGVYTKVCNYVNWIQQTIAAN | yes | >90
10 | trypsin variant SEQ ID NO: 47 (protein) IVGGYTCAANSIPYQVSLNSGSHICGGSLINSQWVVSAAHCYKSRIQVRLGEHNIDVLEGNEQFINAAKIITHPNFNGNTLDNDIMLIKLSSPATLNSRVATVSLPRSCAAAGTECLISGWGNTKSSGSSYPSLLQCLKAPVLSDSSCKSSYPGQITGNMICVGFLEGGKDACQGDSGGPVVCNGQLQGIVSSGYGCAQKNKPGVYTKVCNYVNWIQQTIAAN | yes | >90
11 | trypsin variant SEQ ID NO: 35 (protein) IVGGYTCAANSIPYQVSLNSGSHRCGGSLINSQWVVSAAHCYKSRIQVRLGEHNIDVLEGNEQFINAAKIITHPNFNGNTLDNDIMLIKLSSPATLNSRVATVSLPRSCAAAGTECLISGWGNTKSSGSSLPSLLQCLKAPVLSDSSCKSSYPGQITGNMICVGFLEGGKDACQGDSGGPVVCNGQLQGIVSSGYGCAQKNKPGVYTKVCNYVNWIQQTIAAN | yes | >90
12 | trypsin variant SEQ ID NO: 37 (protein) IVGGYTCAANSIPYQVSLNSGSHRCGGSLINSQWVVSAAHCYKSRIQVRLGEHNIDVLEGNEQFINAAKIITHPNFNGNTLDNDIMLIKLSSPATLNSRVATVSLPRSCAAAGTECLISGWGNTKSSGSSTPSLLQCLKAPVLSDSSCKSSYPGQITGNMICVGFLEGGKDACQGDSGGPVVCNGQLQGIVSSGYGCAQKNKPGVYTKVCNYVNWIQQTIAAN | yes | >90
13 | trypsin variant SEQ ID NO: 48 (protein) IVGGYTCAANSIPYQVSLNSGSHMCGGSLINSQWVVSAAHCYKSRIQVRLGEHNIDVLEGNEQFINAAKIITHPNFNGNTLDNDIMLIKLSSPATLNSRVATVSLPRSCAAAGTECLISGWGNTKSSGSSYPSLLQCLKAPVLSDSSCKSSYPGQITGNMICVGFLEGGKDACQGDSGGPVVCNGQLQGIVSSGYGCAQKNKPGVYTKVCNYVNWIQQTIAAN | yes | >80
14 | trypsin variant SEQ ID NO: 49 (protein) IVGGYTCAANSIPYQVSLNSGSHTCGGSLINSQWVVSAAHCYKSRIQVRLGEHNIDVLEGNEQFINAAKIITHPNFNGNTLDNDIMLIKLSSPATLNSRVATVSLPRSCAAAGTECLISGWGNTKSSGSSYPSLLQCLKAPVLSDSSCKSSYPGQITGNMICVGFLEGGKDACQGDSGGPVVCNGQLQGIVSSGYGCAQKNKPGVYTKVCNYVNWIQQTIAAN | yes | >80
15 | trypsin variant SEQ ID NO: 34 (protein) IVGGYTCAANSIPYQVSLNSGSHRCGGSLINSQWVVSAAHCYKSRIQVRLGEHNIDVLEGNEQFINAAKIITHPNFNGNTLDNDIMLIKLSSPATLNSRVATVSLPRSCAAAGTECLISGWGNTKSSGSSAPSLLQCLKAPVLSDSSCKSSYPGQITGNMICVGFLEGGKDACQGDSGGPVVCNGQLQGIVSSGYGCAQKNKPGVYTKVCNYVNWIQQTIAAN | yes | >90
16 | trypsin variant SEQ ID NO: 45 (protein) IVGGYTCAANSIPYQVSLNSGSHRCGGSLINSQWVVSAAHCYKSRIQVRLGEHNIDVLEGNEQFINAAKIITHPNFNGNTLDNDIMLIKLSSPATLNSRVATVSLPRSCAAAGTECLISGWGNTKSSGSSYPSLLQCLKAPVLSDSSCKSSYPGQITGNMICVGFLEGGKDCCQGDSGGPVVCNGQLQGIVSSGYGCAQKNKPGVYTKVCNYVNWIQQTIAAN | yes | >65
17 | trypsin variant SEQ ID NO: 5 (protein) IVGGYTCAANSIPYQVSLNSGSHRCGGSLINSQWVVSAAHCYKSRIQVRLGEHNIDVLEGNEQFINAAKIITHPNFNGNTLDNDIMLIKLSSPATLNSLVATVSLPRSCAAAGTECLISGWGNTKSSGSSYPSLLQCLKAPVLSDSSCKSSYPGQITGNMICVGFLEGGKDACQGDSGGPVVCNGQLQGIVSSGYGCAQKNKPGVYTKVCNYVNWIQQTIAAN | yes | >90
18 | trypsin variant SEQ ID NO: 38 (protein) IVGGYTCAANSIPYQVSLNSGSHRCGGSLINSQWVVSAAHCYKSRIQVRLGEHNIDVLEGNEQFINAAKIITHPNFNGNTLDNDIMLIKLSSPATLNSRVATVSLPRSCAAAGTECLISGWGNTKSSGSSCPSLLQCLKAPVLSDSSCKSSYPGQITGNMICVGFLEGGKDACQGDSGGPVVCNGQLQGIVSSGYGCAQKNKPGVYTKVCNYVNWIQQTIAAN | yes | >80
19 | trypsin variant SEQ ID NO: 39 (protein) IVGGYTCAANSIPYQVSLNSGSHRCGGSLINSQWVVSAAHCYKSRIQVRLGEHNIDVLEGNEQFINAAKIITHPNFNGNTLDNDIMLIKLSSPATLNSRVATVSLPRSCAAAGTECLISGWGNTKSSGSSNPSLLQCLKAPVLSDSSCKSSYPGQITGNMICVGFLEGGKDACQGDSGGPVVCNGQLQGIVSSGYGCAQKNKPGVYTKVCNYVNWIQQTIAAN | yes | >90
20 | trypsin variant SEQ ID NO: 42 (protein) IVGGYTCAANSIPYQVSLNSGSHRCGGSLINSQWVVSAAHCYKSRIQVRLGEHNIDVLEGNEQFINAAKIITHPNFNGNTLDNDIMLIKLSSPATLNSRVATVSLPRSCAAAGTECLISGWGNTKSSGSSYPSLLQCLKAPVLSDSSCKSSYPGQITGNMICVGFLEGGKDACQGDSGGPVVCNGQLQGIVSSGYGCAQKNKPGVYTKVCNYVNWIQQTIAAN | yes | >90
